The text below walks through data of PMC4207562, “Study of the Structure-Function-Stability Relationships in Yeast D-amino Acid Oxidase: Hydrophobization of Alpha-Helices” (Acta Naturae, 2014).

Positions count from the first letter of the chain named. Names and notes keep the numbering of the source.

What all share (settings): 50 mM potassium phosphate pH 8.0, 30 °C, air-saturated
Substrate in series [1]: CC(C)C[C@@H](N)C(=O)O
In words: purified protein.

Substrate in series [2]: CC(C)[C@@H](N)C(=O)O
In words: purified protein.

Substrate in series [3]: C[C@@H](N)C(=O)O
Briefly: purified protein.

Substrate in series [4]: C[C@H](O)[C@@H](N)C(=O)O
Briefly: purified protein.

Substrate in series [5]: N[C@H](CO)C(=O)O
Briefly: purified protein.

Substrate in series [6]: N[C@H](Cc1ccccc1)C(=O)O
Briefly: purified protein.

Substrate in series [7]: CSCC[C@@H](N)C(=O)O
In words: peroxidase/ABTS coupled assay, A414. The format is biochemical, Trigonopsis variabilis. The source says: (§1) peroxidase/ABTS coupled assay, A414 on TvDAAO

Substrate in series [8]: NC(=O)C[C@@H](N)C(=O)O
Briefly: peroxidase/ABTS coupled assay, A414. The format is biochemical, Trigonopsis variabilis.
Excerpt: as §1

Substrate in series [9]: NCCCC[C@@H](N)C(=O)O
In words: peroxidase/ABTS coupled assay, A414. The format is biochemical, Trigonopsis variabilis.
Excerpt: as §1

Substrate in series [10]: N[C@H](Cc1c[nH]c2ccccc12)C(=O)O
Briefly: peroxidase/ABTS coupled assay, A414. The format is biochemical, Trigonopsis variabilis.
Excerpt: as §1

Substrate in series [11]: N[C@H](Cc1ccc(O)cc1)C(=O)O
In words: peroxidase/ABTS coupled assay, A414. The format is biochemical, Trigonopsis variabilis.
Excerpt: as §1

B1: TvDAAO (Trigonopsis variabilis) (protein)
chain: MAKIVVIGAGVAGLTTALQLLRKGHEVTIVSEFTPGDLSIGYTSPWAGANWLTFYDGGKLADYDAVSYPILRELARSSPEAGIRLISQRSHVLKRDLPKLEVAMSAICQRNPWFKNTVDSFEIIEDRSRIVHDDVAYLVEFRSVCIHTGVYLNWLMSQCLSLGATVVKRRVNHIKDANLLHSSGSRPDVIVNCSGLFARFLGGVEDKKMYPIRGQVVLVRNSLPFMASFSSTPEKENEDEALYIMTRFDGTSIIGGCFQPNNWSSEPDPSLTHRILSRALDRFPELTKDGPLDIVRECVGHRPGREGGPRVELEKIPGVGFVVHNYGAAGAGYQSSYGMADEAVSYVERALTRPNL
notes: recombinant tvdaao gene in pET-33b(+) based plasmid, E. coli BL21(DE3) CodonPlus/pLysS; MonoQ purified; FAD homodimer; no tag stated
Regarding B1, the Km in series [1] was 0.78 ± 0.02 mM; in [2], 14.4 ± 1.2 mM; in series [3], 16.7 ± 0.7 mM; in [4], 11.1 ± 0.8 mM; in series [5] it was 36.6 ± 3.3 mM; in [6], 0.37 ± 0.04 mM. Moreover, the Km turned out to be 0.46 ± 0.03 mM in series [7]; 22.6 ± 1.5 mM in [8]; 29.3 ± 3.4 mM in series [9]; 0.49 ± 0.04 mM in series [10]; 0.45 ± 0.06 mM in series [11]. Moreover, the kcat in series [1] came to 29.1 s⁻¹; in [2], 85.3 s⁻¹; in series [3], 109 s⁻¹; in series [4], 1.75 s⁻¹; in series [5], 20.5 s⁻¹; in series [6] it was 27.2 s⁻¹. The kcat in series [7] came to 80.5 ± 0.8 s⁻¹; in series [8], 62.4 ± 2 s⁻¹; in series [9], 3.54 ± 0.21 s⁻¹; in series [10], 42.4 ± 1.4 s⁻¹; in series [11], 22.5 ± 1.9 s⁻¹. The specificity constant (kcat/Km) in series [1] amounted to 37300 M⁻¹ s⁻¹; in [2], 5900 M⁻¹ s⁻¹; in [3], 6500 M⁻¹ s⁻¹; in series [4], 160 M⁻¹ s⁻¹; in [5], 560 M⁻¹ s⁻¹; in series [6] it was 73900 M⁻¹ s⁻¹. The kcat/Km was 175000 M⁻¹ s⁻¹ in [7]; 2800 M⁻¹ s⁻¹ in [8]; 120 M⁻¹ s⁻¹ in [9]; 86500 M⁻¹ s⁻¹ in [10]; 50000 M⁻¹ s⁻¹ in series [11].

B2: TvDAAO (Trigonopsis variabilis; S77A) (protein)
chain: B1 chain with S77A
notes: as for B1
Consider B2, for which, in series [8], the Km amounted to 4.7 ± 0.7 mM, the kcat stood at 17.2 ± 1 s⁻¹ and the kcat/Km worked out at 3700 M⁻¹ s⁻¹. In [11], the Km is 6.5 ± 0.7 mM, the kcat was found to be 12.4 ± 0.8 s⁻¹ and the kcat/Km is 1900 M⁻¹ s⁻¹.

B3: TvDAAO (Trigonopsis variabilis; S277A) (protein)
chain: B1 chain with S277A
On to B3, for which, in series [1], the Km stood at 0.15 ± 0.02 mM, the kcat is 12 s⁻¹ and the specificity constant (kcat/Km) worked out at 80000 M⁻¹ s⁻¹.

B4: TvDAAO (Trigonopsis variabilis; S336A) (protein)
chain: B1 chain with S336A
In the case of B4, in [1], the Km turned out to be 0.07 ± 0.01 mM, the kcat was 5 s⁻¹ and the kcat/Km was determined as 76400 M⁻¹ s⁻¹.

B5: TvDAAO (Trigonopsis variabilis; S105A) (protein)
chain: B1 chain with S105A
With B5, in series [1], the Km is given as 0.28 ± 0.02 mM, the kcat was 30.4 s⁻¹ and the kcat/Km came out at 110000 M⁻¹ s⁻¹. In addition, in [6], the Km is recorded as 0.26 ± 0.02 mM, the kcat amounted to 32.3 s⁻¹ and the kcat/Km stood at 124000 M⁻¹ s⁻¹.

B6: TvDAAO (Trigonopsis variabilis; S335A) (protein)
chain: B1 chain with S335A
notes: as for B1
As for B6, in series [7], the Km was 4.6 ± 0.2 mM, the kcat is 45.9 ± 1.1 s⁻¹ and the kcat/Km came to 9900 M⁻¹ s⁻¹.

B7: TvDAAO (Trigonopsis variabilis; S67A) (protein)
chain: B1 chain with S67A
notes: as for B1
Regarding B7, in series [1], the Km is 0.34 ± 0.02 mM, the kcat turned out to be 31.4 s⁻¹ and the kcat/Km was found to be 93100 M⁻¹ s⁻¹. In series [7], the Km was found to be 1.35 ± 0.04 mM, the kcat is 104 ± 3 s⁻¹ and the kcat/Km came to 77400 M⁻¹ s⁻¹.

As usually defined, the Km is the substrate concentration at which the rate is half of its maximum. The kcat is the number of substrate molecules converted per active site and unit of time at saturation. For orientation: kcat/Km means the turnover number divided by the Michaelis constant.
